T1: SUMO*-GFP (engineered SUMO 2F4, Smt3 R64T R71E, fused to GFP)
T1 chain: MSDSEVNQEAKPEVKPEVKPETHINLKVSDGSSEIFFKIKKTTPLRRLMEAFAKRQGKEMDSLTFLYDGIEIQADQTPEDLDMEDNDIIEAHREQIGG


How the values were obtained:
[1] = biological target: SMT3-GFP (wild-type SUMO-GFP fusion) [SUMO: Q12306]
[2] = biological target: T1, SUMO*-GFP (engineered SUMO 2F4, Smt3 …)
[3] = biological target: SUMO mutant 2E4 (R64T; R71E), GFP fusion [SUMO: Q12306]
[4] = biological target: SUMO mutant 2E11 (R64F; R71E), GFP fusion [SUMO: Q12306]
[5] = biological target: SUMO mutant 1C1 (R64L), GFP fusion [SUMO: Q12306]
[6] = biological target: SUMO mutant 1A3 (R64Q), GFP fusion [SUMO: Q12306]

Protein	in vitro cleavage, protease titration (SDS-PAGE) [1]	% Cleavage of SUMO* tag [2]	in vitro cleavage, protease titration (SDS-PAGE) [2]	other results
SUMO* protease 1 (ULP1 mutant 2.2; D451S, T452G, E455S) (protein) MGLVPELNEKDDDQVQKALASRENTQLMNRDNIEITVRDFKTLAPRRWLNSGIISFFMKYIEKSTPNTVAFNSFFYTNLSERGYQGVRRWMKRKKTQIDKLDKIFTPINLNQSHWALGIIDLKKKTIGYVDSLSNGPNAMSFAILTDLQKYVMEESKHTIGEDFDLIHLDCPQQPNGYDCGIYVCMNTLYGSADAPLDFDYKDAIRMRRFIAHLILTDALKLEHHHHHH	SUMO* protease 1 cleaves wild type SUMO, but less efficiently than SUMO*	100%	SUMO* protease 1 cleaves the SUMO* tag	
ULP1 mutant 1.38 (residues 451-455: S T I I A) (protein) LVPELNEKDDDQVQKALASRENTQLMNRDNIEITVRDFKTLAPRRWLNSTIIAFFMKYIEKSTPNTVAFNSFFYTNLSERGYQGVRRWMKRKKTQIDKLDKIFTPINLNQSHWALGIIDLKKKTIGYVDSLSNGPNAMSFAILTDLQKYVMEESKHTIGEDFDLIHLDCPQQPNGYDCGIYVCMNTLYGSADAPLDFDYKDAIRMRRFIAHLILTDALK		75%		
ULP1 mutant 1.48 (residues 451-455: S T I I M) (protein) LVPELNEKDDDQVQKALASRENTQLMNRDNIEITVRDFKTLAPRRWLNSTIIMFFMKYIEKSTPNTVAFNSFFYTNLSERGYQGVRRWMKRKKTQIDKLDKIFTPINLNQSHWALGIIDLKKKTIGYVDSLSNGPNAMSFAILTDLQKYVMEESKHTIGEDFDLIHLDCPQQPNGYDCGIYVCMNTLYGSADAPLDFDYKDAIRMRRFIAHLILTDALK		75%		
ULP1 (wild-type SUMO protease 1) (protein) LVPELNEKDDDQVQKALASRENTQLMNRDNIEITVRDFKTLAPRRWLNDTIIEFFMKYIEKSTPNTVAFNSFFYTNLSERGYQGVRRWMKRKKTQIDKLDKIFTPINLNQSHWALGIIDLKKKTIGYVDSLSNGPNAMSFAILTDLQKYVMEESKHTIGEDFDLIHLDCPQQPNGYDCGIYVCMNTLYGSADAPLDFDYKDAIRMRRFIAHLILTDALK	ULP1 cleaves the SMT3 tag	0%	ULP1 does not cleave SUMO* tag	% Cleavage with ULP1 [1]: 100%; in vitro cleavage (SDS-PAGE and anti-Smt3 Western blot) [1]: wild-type SUMO (Smt3) is cleaved by ULP1 and SENP2 (SUMO protease 1 and 2) in vitro; % Cleavage with ULP1 [3]: 0%; % Cleavage with ULP1 [4]: 0%; % Cleavage with ULP1 [2]: 0%; in vitro cleavage reaction [2]: Neither protease cleaved SUMO*; in vitro cleavage, protease titration [2]: incubated with increasing amounts of Ulp1 up to 1000 fold excess of the enzyme concentration required to fully cleave SUMO and still no cleavage was detected; % Cleavage with ULP1 [5]: 10%; % Cleavage with ULP1 [6]: 10%
ULP1 mutant 2.3 (residues 451-455: A M I I A) (protein) LVPELNEKDDDQVQKALASRENTQLMNRDNIEITVRDFKTLAPRRWLNAMIIAFFMKYIEKSTPNTVAFNSFFYTNLSERGYQGVRRWMKRKKTQIDKLDKIFTPINLNQSHWALGIIDLKKKTIGYVDSLSNGPNAMSFAILTDLQKYVMEESKHTIGEDFDLIHLDCPQQPNGYDCGIYVCMNTLYGSADAPLDFDYKDAIRMRRFIAHLILTDALK		10%		

— patent US20120065106
